For 34 molecules, EC50 Mut/Wt and EC50 results are on record in patent US6136558A, “Heregulin variants” (Genentech, Inc., priority 1998, dated 2000).

Like-named read-outs stand apart in the source and are kept apart here. Ends that are not written are not given here.

Test [1] has as its target ErbB-4 receptor-Ig fusion (human) (UniProt Q15303). The test is described as follows: phage ELISA, ratio to wild-type HRG-β1 177-244 on phage; clone selected on ErbB-4-Ig. On the technique in general: In an ELISA, binding on a coated surface is turned into a signal by an enzyme label.
Test [2] deals with ErbB-3 receptor-Ig fusion (human) (UniProt P21860). The test is described as follows: phage ELISA, ratio to wild-type HRG-β1 177-244 on phage.
The target in test [3] is ErbB-2/3 receptor-Ig fusion (ErbB-2/3-Ig). Kind of test: Phage ELISA, competition with soluble ErbB-2/3-Ig. Particulars: EGF-like domain displayed monovalently on phage as pIII fusion; soluble ErbB-2/3-Ig competing half of the phage off the plate; average of duplicate experiments. In kind it is binding. An excerpt: To produce phage displaying the domains, mutagenesis reaction mixtures were electrotransformed into XL1-Blue™ cells (Stratagene, Inc., La Jolla, Calif.), according to the manufacturer's protocol. The transformed cells were then infected with 10^11 plaque-forming units (pfu) M13K07 helper phage (Promega Corp., Madison, Wis.). […] The phage were resuspended in phosphate-buffered saline (PBS: 0.01 M sodium phosphate, 0.1 M NaCl, pH 7.5).
Microtiter plates (Nunc Maxisorp™ 96-well plates, Inter Med, Denmark) for phage ELISA were prepared as follows. The wells were precoated overnight with 0.5 μg of rabbit anti-human IgG (Fc gamma fragment-specific) antibodies (Jackson Immunoresearch, West Grove, Pa.) in 100 μL 50 mM NaCO3 (pH 9.6). The wells were blocked for 30 minutes (min) with 200 μL PBS containing 0.1% bovine serum albumin (BSA) and rinsed with wash buffer (PBS containing 0.05% Tween 20™). The wells were then coated with 0.1 μg ErbB-2/3-Ig in binding buffer (PBS, 0.1% BSA, 0.05% Tween 20™) for 1 h, and washed again.
Following incubation for 2 h at room temperature, plates were washed extensively and treated with a 1:900 dilution of anti-M13 horseradish peroxidase conjugate (Pharmacia, Piscataway, N.J.) for 20 min. The amount of phage binding was determined by assaying horseradish peroxidase activity using o-phenylenediamine dihydrochloride) substrate solution (Sigma Chemical Company, St. Louis, Mo.).

In test [4] the target is ErbB-4 receptor-Ig fusion (human) (UniProt Q15303). The test is described as follows: phage ELISA, ratio to wild-type HRG-β1 177-244 on phage; clone selected on ErbB-4-Ig with ErbB-3-Ig counter-selection.
Test [5] has as its target ErbB-3 receptor-Ig fusion (human) (UniProt P21860). Kind of test: phage ELISA, soluble ErbB-3-Ig as competitor.
The target in test [6] is ErbB-4 receptor-Ig fusion (human) (UniProt Q15303). Kind of test: phage ELISA, soluble ErbB-4-Ig as competitor.
A further test addresses ErbB-3-Ig. The test is described as follows: Inhibition of 125I-HRG-β1 177-244 binding to ErbB-3-Ig by soluble protein. On the procedure: (§1) The affinities of the Trx-variant fusions for ErbB receptor-Ig fusions were determined by measuring inhibition of ^125 I-HRG-β1 177-244 binding to ErbB-3-Ig and ErbB-4-Ig. Receptor fusions were coated on plates (Nunc Maxisorp C™ break-apart strip wells, Inter Med, Denmark) via anti-human IgG, as described in Example 1 for phage ELISA. Binding assays were carried out with a constant amount of ^125 I-HRG-β1 177-244 (100-300 pM) and varying concentrations (100 pM-4 μM) of unlabeled Trx-variant fusion. Following incubation for 1-3 h at room temperature, plates were washed, and the amount of bound ^125 I-HRG-β1 177-244 in each well was counted on a gamma counter (Isodata, ICN Biomedic Systems, Huntsville, Ala.). For the ErbB-3 binding assays, the blocking buffer was TBST (0.025 M Tris-HC1 [pH 7.5], 0.15 M NaCl, 0.02% Tween 20™) containing 1% BSA; the binding buffer was RPMI 1640™ cell culture media (Gibco-BRL, Gaithersburg, Md.) containing 2 mM glutamine, 100 U/mL penicillin, 100 μg/mL streptomycin, 10 mM HEPES buffer (pH 7.2), 0.2% BSA; and the wash buffer was TBST. For the ErbB-4 binding assays, PBS containing 1% BSA was used as the blocking and binding buffers, and the wash buffer was PBS containing 0.05% Tween 20™.

For a further test, the target named is ErbB-4-Ig. Kind of test: Inhibition of 125I-HRG-β1 177-244 binding to ErbB-4-Ig by soluble protein. As to the method:
as §1

Test [7] has as its target ErbB-2/3 receptor-Ig fusion (human) (UniProt P04626). The test is described as follows: phage ELISA, soluble ErbB-2/3-Ig as competitor.
Test [8] concerns the target ErbB-3 receptor-Ig fusion (human) (UniProt P21860). The test is described as follows: displacement of 125I-HRG-β1 177-244 from ErbB-3-Ig. In general terms: In a radioligand displacement assay an active substance lowers the binding of a labelled ligand.
In test [9] the target is ErbB-4 receptor-Ig fusion (human) (UniProt Q15303). Kind of test: displacement of 125I-HRG-β1 177-244 from ErbB-4-Ig.
The mark [10] stands for this setting: soluble HRG-β1 EGF variant free of pIII, inhibition of 125I-HRG binding, read-out: ErbB-3-Ig EC50.
[11] abbreviates: soluble HRG-β1 EGF variant free of pIII, inhibition of 125I-HRG binding, read-out: ErbB-4-Ig EC50.

Regarding “HRG-β1 177-244 H178W with Met in place of 228-231, on phage (ligand)”, the figures for the EC50 Mut/Wt in test [1] and in [2] were 1.7 and 1.2, respectively.
Turning to “HRG6: HRG-β1 177-227 fused to pIII 247 (SHLVKCAEKEKTFCVNGGECFMVKDLSNPSRYLCKCPNEFTGDRCQNYVMA; cysteine pairing not given here; also: fused to pIII 247)”, the EC50 (usually the concentration at which the effect is half-maximal) in test [3] turned out to be 40 nM.
Take “HRG-β1 177-244 H178D L179V on phage (ligand)”: the EC50 Mut/Wt in [4] was 2; in test [2] it was 2.2.
For the molecule HRG-β1 177-244 L179M on phage (ligand), the EC50 Mut/Wt in [1] is 1.5; in test [2], 1.2.
Consider “HRG-β1 177-244 H178E L179V on phage (ligand)”, for which the EC50 Mut/Wt in test [4] was 1.7; in test [2], 0.8.
The matching figures for “HRG-β1 177-244 H178T L179M on phage (ligand)”: 1.6 and 1.4.
For HRG-β1 177-244 R207P on phage (ligand), the EC50 Mut/Wt in test [4] was determined as 1.3; in test [2], 6.1.
The matching figures for “HRG-β1 177-244 H178L with Met in place of 228-231, on phage (ligand)”: 1.7 and 6.4.
As to HRG-β1 177-244 G218A on phage (ligand), the concentration giving a half-maximal response (EC50) in [5] and in test [6] was greater than 1000 nM throughout.
As to HRG-β1 177-244 H178L on phage (ligand), the EC50 Mut/Wt in test [4] worked out at 1.2; in test [2], 1.4.
As for A3: HRG-β1 EGF: S177W, H178E, K181P, the EC50 on ErbB-3-Ig (setting [10]) came out at 4.3 ± 0.2 nM; on ErbB-4-Ig (setting [11]), 2.1 ± 0.1 nM.
As for HRG-β1 177-244 F229A on phage (ligand), the EC50 is 6 nM in test [5] and greater than 1000 nM in test [6].
The matching figures for HRG-β1 177-244 R207A on phage (ligand): greater than 1000 nM and 30 nM.
As to “HRG7: HRG-β1 177-228 fused to pIII 247 (SHLVKCAEKEKTFCVNGGECFMVKDLSNPSRYLCKCPNEFTGDRCQNYVMAS; cysteine pairing not given here; also: fused to pIII 247)”, the 50% effective concentration (EC50) in test [3] was 42 nM.
Consider HRG-β1 177-244 K200A on phage (ligand), for which the EC50 in test [5] came to 20 nM; in test [6], 25 nM.
As for HRG-β1 177-244 H178E on phage (ligand), the EC50 Mut/Wt was determined as 1.7 in test [1] and 9.5 in [2].
In the case of HRG-β1 177-244 F216A on phage (ligand), the half-maximal effective concentration (EC50) is 500 nM in test [5] and greater than 1000 nM in test [6].
For the molecule HRG-β1 177-244 L179A on phage (ligand), the values for the EC50 in [5] and in test [6] were 1000 nM and 56 nM, respectively.
The matching figures for HRG-β1 177-244 Y224A on phage (ligand): 865 nM and 51 nM.
In the case of HRG-β1 177-244 T217A on phage (ligand), the values for the EC50 in [5] and in test [6] were greater than 1000 nM and 14.2 nM, respectively.
The matching figures for HRG-β1 177-244 F189A on phage (ligand): 892 nM and 106 nM.
The matching figures for HRG-β1 177-244 R220A on phage (ligand): greater than 1000 nM and greater than 1000 nM.
The matching figures for HRG-β1 177-244 K211A on phage (ligand): greater than 1000 nM and 59 nM.
As to HRG-β1 177-244 P205A on phage (ligand), the EC50 in test [5] turned out to be 22 nM; in test [6], 8 nM.
The matching figures for HRG-β1 177-244 N192A on phage (ligand): greater than 1000 nM and 188 nM.
For the molecule HRG-β1 177-244 L179V on phage (ligand), the EC50 Mut/Wt came to 1.6 in test [1] and 1.5 in test [2].
With “F1: single library F variant: Met198Lys and Met226Ile”, the EC50 at ErbB-3-Ig (setting [10]) stood at 0.6 ± 0.04 nM; on ErbB-4-Ig (setting [11]), 0.26 ± 0.011 nM.

B1: HRG7 (ligand)
chain: SHLVKCAEKEKTFCVNGGECFMVKDLSNPSRYLCKCPNEFTGDRCQNYVMAS
In the case of B1, in test [7], the concentration giving a half-maximal response (EC50) came out at 42 nM.

B2: HRG6 (ligand)
chain: SHLVKCAEKEKTFCVNGGECFMVKDLSNPSRYLCKCPNEFTGDRCQNYVMA
As for B2, the half-maximal effective concentration (EC50) in [7] was found to be 40 nM.

B3: HRG5 (ligand)
chain: YVSSESPIRISVSTEGANTSSSTSTSTTGTSHLVKCAEKEKTFCVNGGECFMVKDLSNPSRYLCKCPNEFTGDRCQNYVMASFYKHLGIEFMEAEELY
B3: the EC50 in test [3] and in [7] was 4.7 nM each time.

B4: HRG11 (ligand)
chain: SHLVKCAEKEKTFCVNGGECFMVKDLSNPSRYLCKCPNEFTGDRCQNYVMASFYGGGSGGG
As to B4, the concentration for a half-maximal effect (EC50) in test [7] turned out to be 19 nM.

B5: HRG11: HRG-β1 177-230 attached to pIII 247 through GGGSGGG linkage (protein)
chain: B4 chain
modifications: also: attached to pIII 247 through GGGSGGG linkage
notes: HRG-β1 177-230 attached to pIII 247 through GGGSGGG linkage
For the molecule B5, the midpoint of the response in test [3], the EC50, lay at 19 nM.

B6: HRG4 (ligand)
chain: YVSSESPIRISVSTEGANTSSSTSTSTTGTSHLVKCAEKEKTFCVNGGECFMVKDLSNPSRYLCKCPNEFTGDRCQNYVMA
Consider B6, for which the concentration for a half-maximal effect (EC50) in [3] and in [7] was 38 nM each time.

B7: TH-WT (thioredoxin fused at its C-terminus to wild-type HRG-β1 146-244) (ligand)
chain: DDDDKAYVSSESPIRISVSTEGANTSSSTSTSTTGTSHLVKCAEKEKTFCVNGGECFMVKDLSNPSRYLCKCPNEFTGDRCQNYVMASFYKHLGIEFMEAEELY
Regarding B7, the concentration for a half-maximal effect (EC50) is 47.6 nM at ErbB-3-Ig (soluble thioredoxin (Trx) fusion, inhibition of 125I-HRG-β1 177-244 binding, read-out: Sol EC50, binding to the ErbB-3 Receptor); 47.6 nM in test [8]; 15.4 nM at ErbB-4-Ig (soluble thioredoxin (Trx) fusion, inhibition of 125I-HRG-β1 177-244 binding, read-out: Sol EC50, binding to the ErbB-4 Receptor); 15.4 nM in test [9].
